Results on one molecule are retold here after patent US6627739.

Experiment [1] addresses T1, recombinant full-length human β-secretase (1-501) expressed from pCEK clone 27 / pCFβA2 in 293T or Cos A2 … (human, UniProt P56817 46-501).
T1 construct: From 293T cells the N-terminus was mainly residue 46, with minor forms at 22 and 63; From Cos A2 cells it was 46 and 58; also called p501 β-secretase; full length clone 27
The experiment in a line: affinity chromatography on peptide-Sepharose, extracts of transfected 293T and COS A2 cells. The protocol: The cell pellet was resuspended by homogenizing for 30 seconds using a handheld homogenizer (0.5 ml/pellet of approximately […] in extraction buffer consisting of 20 mM TRIS buffer, pH 7.5, 2 mM EDTA, 0.2% Triton X-100, plus protease inhibitors: 5 µg/ml E-64, 10 µg/ml pepstatin, 1 mM PMSF), centrifuged as maximum speed in a microfuge (40 minutes at 4 degrees C.). Pellets were suspended in original volume of extraction buffer, then stirred at 1 hour at 4 degrees C. with rotation, and centrifuted again in a microfuge at maximum speed for 40 minutes. The resulting supernatant was saved as the "extract." The extract was then diluted with 20 mM sodium acetate, pH 5.0,2 mM EDTA and 0.2% Triton X-100 (SP buffer A), and 5M NaCl was added to a final concentration of 60 mM NaCl. The pH of the solution was then adjusted to pH 5.0 with glacial acetic acid diluted 1:10 in water. Aliquots were saved ("SP load"). The SP load was passed through a 1 ml SP HiTrap column which was pre-washed with 5 ml SP buffer A, 5 ml SP buffer B (SP buffer A with 1 M NaCl) and 10 ml SP buffer A. An additional 2 ml of 5% SP buffer B was passed through the column to displace any remaining sample from the column. The pH of the SP flow-through was adjusted to pH 4.5 with 10× diluted acetic acid. This flow-through was then applied to a P10-P4'staD→V-Sepharose Affinity column, as described below. […]

For the next experiment, the target named is T2, β-secretase 46-452 (human, UniProt P56817 46-452).
T2 construct: C-terminally truncated form lacking the transmembrane region
T2 sequence (P56817 46-452 limits assumed): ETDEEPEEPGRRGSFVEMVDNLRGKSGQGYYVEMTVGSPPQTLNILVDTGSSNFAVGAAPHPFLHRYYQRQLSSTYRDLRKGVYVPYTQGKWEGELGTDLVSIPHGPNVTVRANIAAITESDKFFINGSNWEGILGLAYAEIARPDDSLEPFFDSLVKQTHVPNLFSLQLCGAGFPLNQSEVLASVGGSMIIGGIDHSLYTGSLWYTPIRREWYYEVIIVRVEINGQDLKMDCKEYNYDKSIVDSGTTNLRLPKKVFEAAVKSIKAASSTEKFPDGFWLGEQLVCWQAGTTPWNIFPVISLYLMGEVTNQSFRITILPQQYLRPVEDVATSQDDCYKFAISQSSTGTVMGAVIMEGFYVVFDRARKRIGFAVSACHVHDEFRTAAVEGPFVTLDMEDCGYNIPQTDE
The experiment in a line: binding to peptide-Sepharose affinity matrix. How it is done: The same fractions run under non-reducing conditions (FIG. 6B) provide evidence for disulfide cross-linked oligomers. When the anion exchange pool fractions 18–21 (see FIG. 6B) were treated with dithiothreitol (DTT) and re-chromatographed on a Mini Q column, then subjected to SDS-PAGE under non-reducing conditions, a single band running at about 70 kilodaltons was observed.
All manipulations were carried out at room temperature. 12.5 ml of 80% slurry of NHS-Sepharose (i.e. 10 ml packed volume; Pharmnacia, Piscataway, N.J.) was poured into a Bio-Rad EconoColumn (BioRad, Richmond, Calif.) and washed with 165 ml of ice-cold 1.0 mM HCl. When the bed was fully drained, the bottom of the column was closed off, and 5.0 ml of 7.0 mg/ml P10-P4'sta(D→V) peptide (dissolved in 0.1 M HEPES, pH 8.0) was added. The column was capped and incubated with rotation for 24 hours. After incubation, the column was allowed to drain, then washed with 8 ml of 1.0 M ethanolamine, pH 8.2. An additional 10 ml of the ethanolamine solution was added, and the column was again capped and incubated overnight with rotation. […]

[ ]: non-standard residue; d: D form. Sta = CC(C)C[C@H](N)[C@@H](O)CC(=O)O

T1 sequence (P56817 46-501 limits assumed): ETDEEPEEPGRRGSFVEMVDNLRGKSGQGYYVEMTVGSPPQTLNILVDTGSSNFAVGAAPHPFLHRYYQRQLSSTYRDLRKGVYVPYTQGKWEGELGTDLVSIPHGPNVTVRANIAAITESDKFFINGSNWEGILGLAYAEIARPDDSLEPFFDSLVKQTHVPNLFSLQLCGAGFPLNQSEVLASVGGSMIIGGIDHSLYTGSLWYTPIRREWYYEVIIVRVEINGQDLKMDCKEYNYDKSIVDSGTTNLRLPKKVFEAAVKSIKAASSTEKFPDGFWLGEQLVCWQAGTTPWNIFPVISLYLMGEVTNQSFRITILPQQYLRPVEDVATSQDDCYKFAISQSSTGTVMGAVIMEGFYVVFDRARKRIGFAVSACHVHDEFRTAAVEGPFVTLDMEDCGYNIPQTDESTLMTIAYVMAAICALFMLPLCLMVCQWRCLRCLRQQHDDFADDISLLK

Regarding H-KTEEISEVN[Sta]VAEF-OH (also called P10-P4′(statine)D→V) [P10-P4′staD→V (NH2-KTEEISEVN[sta]VAEF-CO2H)], the binding result (in experiment [1]; in the experiment with β-secretase 46-452) was “binds” throughout.
